{"source": "patent US20110286970A1", "key": {"[1]": {"target": "wild type human α-synuclein (human) (UniProt P37840)", "assay": "cell-based or functional assay"}, "[2]": {"target": "12 amino acid fragment corresponding to amino acids 71-82 of human α-synuclein (human)", "assay": "cell-based or functional assay"}}, "data": [{"substance": "M13 filamentous phage (wild-type, prepared with M13K07 helper phage)", "values": [{"measurement": "ELISA of α-synuclein oligomers in the insoluble fraction of SH-SY5Y cells", "setting": "[1]", "result": "40 to 50", "unit": "% reduction"}, {"measurement": "Thioflavine T (Tht) fluorescence emission at 480 nm of the pre-aggregated peptide", "setting": "[2]", "result": 43, "unit": "% reduction"}]}]}
